According to patent publication US7576101B2, “Composition for and treatment of demyelinating diseases and paralysis by administration of remyelinating agents” (Elan Pharmaceuticals, Inc., priority 2003, dated 2009):
Values belong to the molecule of their own block, whether it stands above or below them.

Experiments:
[1] = molecular target: human α4β1 integrin (human) (UniProt P13612); assay: cell-based or functional assay
[2] = molecular target: rat α4 integrin on rat lymphocytes (rat); assay: cell-based or functional assay
VLA-4 = VLA-4 (Homo sapiens, UniProt P13612); conditions: cited from earlier work
[3] = system: human lymphocyte binding to rat brain cells; conditions: cited from earlier work

Molecule: AIIB2 (antibody)
Relative Binding to EAE Vessels (% of Control), human lymphocytes [1]: 7 % of Control
Relative Binding to EAE Vessels (% of control), U937 cells [1]: 8 % of control

Molecule: HP2/1 (antibody)
Relative Binding to EAE Vessels (% of Control), rat lymphocytes [2]: 18 % of Control
% Input Binding Jurkat, TNFα-stimulated rat brain EC clone [1]: 6 % input
% Input Binding Ramos, TNFα-stimulated rat brain EC clone [1]: 2 % input
% Input Binding U937 to VCAM-1 transfected L cells [1]: 3 % input
% inhibition of Jurkat binding to FN-coated plate [1]: 47 % inhibition
% input bound, Jurkat cells on FN-coated plate (% input bound) [1]: 42
% input cells bound, U937 on TNFα-stimulated primary rat brain EC (% input cells bound) [1]: 13
Binding of U937 cells to inflamed vessels in sections of EAE brain [1]: 3
Relative Binding to EAE Vessels (% of Control), human lymphocytes [1]: 1 % of Control
Relative Binding to EAE Vessels (% of control), U937 cells [1]: 3 % of control
Relative Binding to EAE Vessels (% of control), U937 cells, tested at 25° C. [1]: 5 % of control

B1: mu MAb 21.6: mouse monoclonal antibody specific for the alpha-4 subunit of VLA-4; donor immunoglobulin for humanization (antibody, V domains shown)
VH: EVQLQQSGAELVKPGASVKLSCTASGFNIKDTYIHCVKQRPEQGLEWIGRIDPANGYTKYDPKFQGKATITADTSSNTAYLQLSSLTSEDTAVYFCAREGYYGNYGVYAMDYWGQGTSVTVSSAK
VL: DIQMTQSPSSLSASLGGKVTITCKTSQDINKYMAWYQHKPGKRPRLLIHYTSALQPGIPSRFSGSGSGRDYSFNISNLEPEDIATYYCLQYDNLWTFGGGTKLEIK
binding affinity for VLA-4 (VLA-4): about 10^9 M^−1
human lymphocyte binding to tissue cultures of rat brain cells stimulated with tumor necrosis factor [3]: inhibit

Results, then the molecule that gave them:

Relative Binding to EAE Vessels (% of control), U937 cells [1]: 338 % of control
Molecule: HP1/7 (antibody)

Relative Binding to EAE Vessels (% of control), U937 cells [1]: 151 % of control
Molecule: P4G9 (antibody)
